The target in experiment [1] is Thermotoga maritima TsaB2D2 complex (Thermotoga maritima) (UniProt Q9WZX7). As to the kind of experiment: ITC. Background: ITC needs no label: the signal is the heat of the interaction.
Experiment [2] has the same target. As to the kind of experiment: SEC.
The target is the same in experiment [3]. Description: ITC. This is another data set of the same source.
Experiment [4] has the same target. Description: SEC. This is another data set of the same source.
Experiment [5] has the same target. Description: ITC. The source holds these as a separate data set.

Like-named read-outs stand apart in the source and are kept apart here.

The values below come from publication PMC5814804.

Chain of Thermotoga maritima TsaB2D2 complex (Thermotoga maritima) (Q9WZX7 whole entry, chain 1 of 2): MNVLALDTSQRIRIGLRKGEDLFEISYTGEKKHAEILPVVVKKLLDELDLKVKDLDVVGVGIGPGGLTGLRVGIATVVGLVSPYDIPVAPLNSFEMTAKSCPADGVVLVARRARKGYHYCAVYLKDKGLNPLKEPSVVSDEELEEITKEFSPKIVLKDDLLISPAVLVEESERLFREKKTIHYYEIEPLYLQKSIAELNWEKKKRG
Chain of Thermotoga maritima TsaB2D2 complex (Thermotoga maritima) (Q9WXZ2 whole entry, chain 2 of 2, further chain): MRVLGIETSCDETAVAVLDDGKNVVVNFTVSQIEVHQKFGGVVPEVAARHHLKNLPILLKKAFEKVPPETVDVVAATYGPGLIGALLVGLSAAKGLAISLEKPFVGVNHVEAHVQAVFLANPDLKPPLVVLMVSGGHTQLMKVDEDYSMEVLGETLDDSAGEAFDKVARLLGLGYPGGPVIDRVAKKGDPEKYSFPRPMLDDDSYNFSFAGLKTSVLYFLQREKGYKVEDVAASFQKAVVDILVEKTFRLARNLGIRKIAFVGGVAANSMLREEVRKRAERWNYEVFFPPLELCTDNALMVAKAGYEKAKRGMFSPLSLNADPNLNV

Consider “Thermotoga maritima TsaE (natural protein)”, for which the Kd (usually the equilibrium constant for the complex coming apart) in experiment [1] worked out at 1300 nM; in experiment [3] it was 1100 nM; in experiment [5], 340 nM. The dH in experiment [1] turned out to be 11.9 kcal/mol; in experiment [3], 1.54 kcal/mol; in experiment [5], 7.44 kcal/mol. Moreover, the stoichiometry N (commonly a count of units in the complex or per binding partner) in experiment [1] came to 2.11; in experiment [3], 2.16; in experiment [5], 2.72. Further, the stoichiometry N (TsaE per TsaB2D2) was 2 in experiment [2] and 1 in experiment [4].

Turning to “Thermotoga maritima TsaE E108A mutant (natural protein)”, in experiment [1], the Kd is 1100 nM and the dH amounted to 9.3 kcal/mol. In experiment [5], this substance yielded a Kd of 2400 nM, a dH of 11.9 kcal/mol and a stoichiometry N of 1.91.

In experiment [1], “Thermotoga maritima TsaE T42A mutant (natural protein)” showed a Kd of 1400 nM and a dH of 8 kcal/mol. Besides, in experiment [5], the Kd was determined as 1100 nM, the dH came out at 10.3 kcal/mol and the stoichiometry N turned out to be 2.
